In paper PMC13216289:

Target: FMDV C/PHI/3/1994 virus (Foot-and-mouth disease virus C/PHI/3/1994)

| Binder | VNT: minimum antibody concentration that neutralises C/PHI/3/1994 virus [nM] |
| --- | --- |
| Ab17 (antibody, V domains shown) VH: QVQLRESGPSSLKPSQTLSLTCAVSGFSLSTYAVGWVRQAPGKALEWVGDITSSGDTFYNPALKSRFSITKDNSKNQVSLSVGSVTPEDTATFYCTRLTCGDDCSTAWHNFDAWGQGLLVTVSS VL: SYELTQPTSVSVALGQTAKITCSGDLLDVQYTQWYQQKPGQGPVRVIYKDSERPSGISDRFSGSSSGKTATLIISGAQTEDEADYYCQSTDSSQYGIFGRGTTLTVL | 213 |
| Ab49 (antibody, V domains shown) VH: QVQLRESGPSLVKPSQTLSLTCTVSGFSLTNYAVGWVRQAPGKAIQSLSIISTTGDTYYNPALKSRLSITKDNSKSQVSLSVSSVAPEDTATYYCVKFCGNADSAGHGWGCDYGDNENWGQGLLVTVSS VL: SYELTQPTSVSVALGQTAKITCSGDLLDEQYTQWYQQKPGQGPVRVIYKDSERPSGISDRFSGSSSGKTATLTISGAQTEDEADYYCQSFYSSTDPVFGSGTTLTVL | 1150 |
